{"source": "patent US20250295734A1", "about": "“ANTICOAGULANT PROTEINS AND THEIR USE FOR TREATING DISEASES ASSOCIATED WITH THE ACTIVATION OF NEUTROPHILS” (BIOXODES, priority 2018, published 2025)", "key": {"[1]": {"test_system": "polymorphonuclear neutrophils (PMNs)", "test": "Laser-induced vessel wall injury: PMN accumulation (anti-Ly6G)", "format": "in vivo, mice (C57BL/6JRj)", "details": "iv bolus 20.5 mg/kg + infusion 3.7 mg/kg/h", "procedure": "(§1) Ir-CPI was administered intravenously as a bolus (20.5 mg/kg) immediately followed by a continuous infusion at a rate of 3.7 mg/kg/h (see Table 1 below). Due to fast distribution and elimination of Ir-CPI in the mice (t1/2α=14 min and t1/2β=236 min), the combination of the bolus and the infusion was chosen in order to maintain a constant Ir-CPI concentration into the blood.\n(§2) Vessel wall injury was induced with a Micropoint Laser System (Photonics Instruments) focused through the microscope objective, parfocal with the focal plane and aimed at the vessel wall, as previously described (Dubois et al., 2006). Typically, 1 or 2 pulses were required to induce vessel wall injury.\n(§3) Multiple thrombi were studied in a single mouse, with new thrombi formed upstream of earlier thrombi to avoid any contribution from thrombi generated earlier in the animal under study. Laser-beam injuries were done at various time after the start of test-item administration (+5 min up to about 150 min after bolus administration of Ir-CPI or NaCl (control)).\n(§4) Image analysis was performed using Slidebook 4.1 (Intelligent Imaging Innovations). Fluorescence data were captured digitally at up to 50 frames per second and analyzed as previously described (Falati et al., 2002). The kinetics of thrombus formation were analyzed by determining median fluorescence values over time in a minimum number of 20 thrombi.\nDetection of PMNs in vivo was performed using PE-labelled anti-Ly6G antibody.\nTo determine whether Ir-CPI has an impact on the accumulation of PMNs at the site of injury, the accumulation of PMNs on the injured vessel wall was monitored using a PE-fluorescently labeled antibody directed against Ly6G (FIG. 5)."}, "[2]": {"test_system": "thrombin generation induced by TF (extrinsic pathway activator)", "details": "induced by low concentration of TF (5 pM); cited from earlier work"}, "human washed platelets": {"test_system": "human washed platelets", "test": "In vitro platelet aggregation assay", "format": "cell-based", "procedure": "Blood from healthy human donors, who had not taken anti-platelet agents within the 15 days prior to collection, was collected in citrated tubes and centrifuged for 13 min at 200 g. The platelet-rich plasma was collected and centrifuged for 13 min at 900 g in Tyrode buffer (138 mM NaCl, 2.9 mM KCl, 12 mM NaHCO3, 5.5 mM glucose, 1.8 mM CaCl2 and 0.4 mM MgCl2, pH 7.4) containing 0.2% BSA, apyrase 0.02 U/mL and PGI2 500 nM. Washed platelets were resuspended in the Tyrode/BSA 0.2%/apyrase/PGI2 solution and centrifuged at 900 g for 13 min. Platelets were resuspended in a Tyrode/BSA 0.2% solution at a concentration of 3.10^8 platelets/mL. Platelets were kept at 37° C. for 30 min in a solution containing […]. Next, platelets were incubated at 37° C. under agitation for 5 to 10 minutes in an aggregometer APACT 4004 with ADP (adenosine diphosphate), TRAP (Thrombin Receptor-Activating Peptide) and/or Ir-CPI.\nThe effect of Ir-CPI on platelet aggregation was assessed in vitro by using isolated human washed platelets (n=1)."}, "[3]": {"test_system": "platelet accumulation and fibrin generation on the injured vessel walls", "test": "Laser-induced vessel wall injury of cremaster muscle arterioles: platelet and fibrin detection", "format": "in vivo, mice (C57BL/6JRj)", "details": "iv bolus 20.5 mg/kg + infusion 3.7 mg/kg/h", "procedure": "as §1\nIntravital video-microscopy of the cremaster muscle microcirculation was done as previously described (Falati et al., 2002).\nMice were anesthetized with intraperitoneal injection of ketamine (125 mg/kg), xylazine (12.5 mg/kg) and atropine (0.25 mg/kg) and were maintained at 37° C. on a thermo-controlled rodent blanket.\nA tracheal tube was inserted into the trachea to facilitate breathing. A canula was inserted into a jugular vein for administration of pentobarbital. Pentobarbital (12 mg/kg) was administered in the jugular vein every 20-30 minutes to maintain the mice under anesthesia throughout the handling. The same jugular vein canula was used for the administration of the antibodies and the enzymatic substrate coupled to a fluorochrome that is necessary to follow the development of the thrombus (detection of fibrin and/or platelets and/or neutrophils and/or neutrophil elastase activity). A canula was also inserted in the second contralateral jugular vein for administration of the vehicle or the test item (Ir-CPI or NaCl).\nAfter the scrotum was incised, the testicle and surrounding cremaster muscle were exteriorized onto an intravital microscopy tray. The cremaster muscle was continuously perfused with thermo-controlled (37° C.) and aerated (95% N2, 5% CO2) bicarbonate-buffered saline solution throughout the experiment.\nMicrovessel data were obtained using an Olympus AX61WI microscope with a 60×0.9-numerical aperture water immersion objective. The digital wide-field fluorescence microscopy system has previously been described (Falati et al., 2002). Digital images were captured with a Cooke Sensicam CCD camera in 640×480 format.\nas §2, §3, §4\nIn vivo detection of fibrin was performed using an Alexa Fluor 488-conjugated anti-fibrin antibody from Darbousset et al., 2014, administered intravenously at 0.5 μg/g of mouse. […]\nPlatelet accumulation and fibrin generation on the injured vessel walls were monitored using the following fluorescently labeled antibodies: DyLight649-labeled anti-GPIb antibody and Alexa Fluor 488-conjugated anti-fibrin antibody, respectively."}, "FXIa": {"target": "FXIa (Homo sapiens, UniProt P03951)", "sequence (P03951 19-387 limits assumed)": "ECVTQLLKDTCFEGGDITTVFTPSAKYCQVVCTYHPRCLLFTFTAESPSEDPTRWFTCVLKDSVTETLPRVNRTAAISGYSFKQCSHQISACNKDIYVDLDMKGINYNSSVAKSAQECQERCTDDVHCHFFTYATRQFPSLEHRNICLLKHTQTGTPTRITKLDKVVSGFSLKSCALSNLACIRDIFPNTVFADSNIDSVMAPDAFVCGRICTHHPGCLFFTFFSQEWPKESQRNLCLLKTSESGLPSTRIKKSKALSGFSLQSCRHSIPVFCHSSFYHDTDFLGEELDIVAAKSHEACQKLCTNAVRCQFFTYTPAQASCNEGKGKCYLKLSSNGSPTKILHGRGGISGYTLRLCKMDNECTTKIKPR", "sequence (P03951 388-625 limits assumed)": "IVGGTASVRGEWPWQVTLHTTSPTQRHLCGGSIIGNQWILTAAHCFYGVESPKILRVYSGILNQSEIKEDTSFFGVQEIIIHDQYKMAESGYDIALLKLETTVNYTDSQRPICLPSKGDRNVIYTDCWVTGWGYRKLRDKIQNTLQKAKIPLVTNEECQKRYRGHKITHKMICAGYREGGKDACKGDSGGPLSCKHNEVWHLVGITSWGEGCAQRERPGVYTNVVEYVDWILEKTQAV", "details": "cited from earlier work"}, "[4]": {"details": "Ir-CPI 500 μg/100 μL injected alone and then TRAP 20 μM at about 230 sec"}, "[5]": {"details": "TRAP 20 μM + Ir-CPI 500 μg/100 μL injected together"}, "[6]": {"details": "agent alone (TRAP 20 μM, ADP 20 μM or Ir-CPI 500 μg/100 μL), n=1"}}, "note": "Several values for one entry are separate records, joined by “and”; a condition that tells them apart may be missing. Equal entries are not always repeated. Entries after “also recorded” stand apart in the source; their conditions may differ.", "data": [{"molecule": "Ir-CPI: Ixodes ricinus salivary gland polypeptide, contact phase inhibitor, MW=7660 Da; sequence SEQ ID NO: 1 or SEQ ID NO: 2 (protein) ANHKGRGRPAKCKLPPDDGPCRARIPSYYFDRKTKTCKEFMYGGCEGNENNFENITTCQEECRAKKV", "values": [{"measurement": "maximal median of integrated PMN fluorescence (anti-Ly6G)", "setting": "[1]; at T 261 sec", "result": "3.02×10^6 AU"}, {"measurement": "median of integrated PMN fluorescence", "setting": "[1]; at T 270 sec (end of measurement)", "result": "2.78×10^6 AU"}, {"measurement": "PMN accumulation compared to control mice", "setting": "[1]; first 4.5 min after laser injury", "result": "drastically decreased"}, {"measurement": "thrombin generation", "setting": "[2]", "result": "quite inactive"}, {"measurement": "Aggregation Latency", "setting": "human washed platelets; [4]", "result": 231.2, "unit": "s"}, {"measurement": "Aggregation Max", "setting": "human washed platelets; [4]", "result": 73.5, "unit": "%"}, {"measurement": "Aggregation Slope", "setting": "human washed platelets; [4]", "result": 31.1, "unit": "%/min"}, {"measurement": "activation of platelet aggregation", "setting": "human washed platelets; Ir-CPI alone added to washed platelets", "result": "did not activate platelet aggregation"}, {"measurement": "effect on TRAP-induced platelet aggregation", "setting": "human washed platelets; Ir-CPI and TRAP, compared to TRAP alone", "result": "did not significantly modify platelet aggregation; also recorded: does not inhibit platelet aggregation"}, {"measurement": "Aggregation Latency", "setting": "human washed platelets; [5]", "result": 98.6, "unit": "s"}, {"measurement": "Aggregation Max", "setting": "human washed platelets; [5]", "result": "71.7% and 71.8%"}, {"measurement": "Aggregation Slope", "setting": "human washed platelets; [5]", "result": 35.1, "unit": "%/min"}, {"measurement": "Aggregation Latency", "setting": "human washed platelets; [6]", "result": 70.0, "unit": "s"}, {"measurement": "Aggregation Max", "setting": "human washed platelets; [6]", "result": 4.1, "unit": "%"}, {"measurement": "Aggregation Slope", "setting": "human washed platelets; [6]", "result": 16.2, "unit": "%/min"}, {"measurement": "maximal median of integrated platelet fluorescence", "setting": "[3]; at T214 sec after laser injury", "result": "121 783 AU"}, {"measurement": "median of integrated platelet fluorescence", "setting": "[3]; at T228 sec (end of measurement)", "result": "101 887 AU"}, {"measurement": "median of integrated fibrin fluorescence intensity compared to control mice", "setting": "[3]; every time point 0, 15, 30, 45, 75 and 90 min", "result": "lower"}, {"measurement": "fibrin generation compared to control mice", "setting": "[3]; first 3.8 min after laser injury", "result": "less important"}, {"measurement": "platelet accumulation compared to control mice", "setting": "[3]; short time period (228 sec)", "result": "drastically decreased"}, {"measurement": "binding to FXIa", "setting": "FXIa", "result": "binds"}]}]}
